Data taken from paper PMC7496768, “Understanding Substrate Selectivity of Phoslactomycin Polyketide Synthase by Using Reconstituted in Vitro Systems” (Chembiochem, 2020).

How the values were obtained:
[1] = test system: T1, CC(C)(COP(=O)(O)OP(=O)(O)OC[C@H]1O[C@@H](n2cnc3c(N)ncnc32)[C@H](O)[C@@H]1OP(=O)(O)O)[C@@H](O)C(=O)NCCC(=O)NCCSC(=O)CC(=O)O; test: purified protein, by the assay type; parameters: SucC/SucD-coupled CoA-SH release assay, NADH absorbance 340 nm, apparent KM for transacylation to ACP; details: pH 7.4; 30.0 °C
T1 construct: KS-AT didomain of PnB first module (Pn PKS module 2), recombinant, purified
Protocol: (§1) Acyltransferase steady state kinetic assay. The assay buffer (200 mM Tris, glycerol 5%v/v, 20 mM MgCl2, pH 7.4) was used to set up all other solutions for this assay. Four master mixes (MM1 to MM4) in 4x concentration were prepared. For MM1 containing the KS-AT proteins (KS-AT or KS-ATS->A mutants), the enzymes were adjusted to 2 µM (for transacylation) or to 4 µM (for hydrolysis) with assay buffer additionally containing 1 mM DTT and 0.1 mg/mL BSA. For MM2 highly pure and concentrated ACP were adjusted to 1600 µM concentration with the assay buffer. Substrate acyl-CoA containing MM3 was prepared with the assay buffer in varying substrate concentrations ranging from (4x concentration indicated here) 1 µM to 1 mM. MM4 contained 1.6 mM NADH, 20 mM ATP, 30 mM succinate, 10 mM phosphoenolpyruvate (stock solutions should be resuspended in assay buffer, or Tris 200 mM, pH 7.4). First, these compounds were mixed and assay buffer was added, leaving volume for Pyruvate Kinase/Lactic Dehydrogenase (PK/LDH), SucC and SucD. After mixing of the compounds, the enzymes were added to MM4 like following: 0.06 mM SucC, 0.06 mM SucD and 20% v/v of PK/LDH (Sigma-Aldrich) (40 µL PK/LDH for 200 µL MM4). To measure transacylation 25 µL MM3, 25 µL MM4, 25 µL MM2 were mixed and incubated 30 °C for one minute. The reaction was started using 25 µL MM1. To measure hydrolysis 25 µL MM3, 25 µL MM4, 25 µL assay buffer were mixed, incubated at 30 °C for one minute. The reaction was started with 25 µL MM1. In both cases after starting the reaction, the mixture was immediately transferred into a 1 cm quartz cuvette, preheated to 30 °C and the absorption was monitored at 340 nm with a Cary 60 UV vis (Agilent technologies). The reactions were measured in three to four technical replicates. Simultaneous to 16 Scheme S1: Steady state kinetic assay, relying on purified proteins. KS-AT didomains and standalone ACPs are used. Upon covalent binding of the acyl-residue to the AT, CoA-SH is released. With no ACP acceptor available, the acyl-residue is subsequently hydrolyzed by nucleophilic attack of water and the AT can bind a new acyl-residue. If holo-ACP is available, the acyl-residue is transferred and the AT can bind a new acyl-residue. Free CoA-SH is converted to succinyl-CoA by E. coli SucC/SucD. In this reaction ADP is produced, which can be used by pyruvate kinase/lactic dehydrogenase (PK/LDH) under NADH consumption. For Michaelis Menten plots with data collected with this assay refer to Figure S6. With the SucC/SucD‐based assay we determined kinetic parameters of PnB_KS‐AT1, PnB_KS‐AT2, PnC_KS‐AT and PnD_KS‐AT for hydrolysis and transacylation (Table S3, Figure S7). As negative control AT catalytic knockouts were used. […] These measurements were independently confirmed by mass spectrometric analysis of acylated ACPs, in which we exclusively detected malonyl‐ACP formation (Tables S1 and S4). […] K M between 4 μM to 11 μM. Rates for transacylation were between 10‐ to 35‐ fold higher (app. k cat of 28 min^−1–140 min^−1) at 2.5 to 7.7 fold higher catalytic efficiency (Table S3).

[2] = test system: T1, CC(C)(COP(=O)(O)OP(=O)(O)OC[C@H]1O[C@@H](n2cnc3c(N)ncnc32)[C@H](O)[C@@H]1OP(=O)(O)O)[C@@H](O)C(=O)NCCC(=O)NCCSC(=O)CC(=O)O; test: SucC/SucD - pyruvate kinase/lactate dehydrogenase coupled assay of CoA release; assay type: biochemical, Streptomyces platensis; details: hydrolysis
[3] = test system: T2, CC(C)(COP(=O)(O)OP(=O)(O)OC[C@H]1O[C@@H](n2cnc3c(N)ncnc32)[C@H](O)[C@@H]1OP(=O)(O)O)[C@@H](O)C(=O)NCCC(=O)NCCSC(=O)CC(=O)O; test: purified protein, by the assay type; parameters: SucC/SucD-coupled CoA-SH release assay, NADH absorbance 340 nm, apparent KM for transacylation to ACP; details: pH 7.4; 30.0 °C
T2 construct: KS-AT didomain of PnB second module (Pn PKS module 3), recombinant, purified
Protocol: as §1

[4] = test system: T2, CC(C)(COP(=O)(O)OP(=O)(O)OC[C@H]1O[C@@H](n2cnc3c(N)ncnc32)[C@H](O)[C@@H]1OP(=O)(O)O)[C@@H](O)C(=O)NCCC(=O)NCCSC(=O)CC(=O)O; test: SucC/SucD - pyruvate kinase/lactate dehydrogenase coupled assay of CoA release; assay type: biochemical, Streptomyces platensis; details: hydrolysis
[5] = test system: T3, CCCCCC[C@@H](C(=O)O)C(=O)SCCNC(=O)CCNC(=O)[C@H](O)C(C)(C)COP(=O)(O)OP(=O)(O)OC[C@H]1O[C@@H](n2cnc3c(N)ncnc32)[C@H](O)[C@@H]1OP(=O)(O)O; test: as above; assay type: biochemical, Streptomyces platensis; details: hydrolysis
T3 construct: ketosynthase-acyltransferase (KS-AT) didomain of PnC, recombinant, purified
Text: (§2) SucC/SucD - pyruvate kinase/lactate dehydrogenase coupled assay of CoA release on PnC_KS-AT

[6] = test system: T4, C[C@@H](C(=O)O)C(=O)SCCNC(=O)CCNC(=O)[C@H](O)C(C)(C)COP(=O)(O)OP(=O)(O)OC[C@H]1O[C@@H](n2cnc3c(N)ncnc32)[C@H](O)[C@@H]1OP(=O)(O)O; test: as above; assay type: biochemical, Streptomyces platensis; details: hydrolysis
T4 construct: ketosynthase-acyltransferase (KS-AT) didomain of PnC, recombinant, purified
Text: as §2

[7] = test system: T5, CC(C)(COP(=O)(O)OP(=O)(O)OC[C@H]1O[C@@H](n2cnc3c(N)ncnc32)[C@H](O)[C@@H]1OP(=O)(O)O)[C@@H](O)C(=O)NCCC(=O)NCCSC(=O)CC(=O)O; test: as above; assay type: biochemical, Streptomyces platensis; details: hydrolysis
T5 construct: ketosynthase-acyltransferase (KS-AT) didomain of PnC, recombinant, purified
Text: as §2

[8] = test system: T6, CC(C)CC[C@@H](C(=O)O)C(=O)SCCNC(=O)CCNC(=O)[C@H](O)C(C)(C)COP(=O)(O)OP(=O)(O)OC[C@H]1O[C@@H](n2cnc3c(N)ncnc32)[C@H](O)[C@@H]1OP(=O)(O)O; test: as above; assay type: biochemical, Streptomyces platensis; details: hydrolysis
T6 construct: ketosynthase-acyltransferase (KS-AT) didomain of PnC, recombinant, purified
Text: as §2

[9] = test system: T7, CCCC[C@@H](C(=O)O)C(=O)SCCNC(=O)CCNC(=O)[C@H](O)C(C)(C)COP(=O)(O)OP(=O)(O)OC[C@H]1O[C@@H](n2cnc3c(N)ncnc32)[C@H](O)[C@@H]1OP(=O)(O)O; test: as above; assay type: biochemical, Streptomyces platensis; details: hydrolysis
T7 construct: ketosynthase-acyltransferase (KS-AT) didomain of PnC, recombinant, purified
Text: as §2

[10] = test system: T8, CC[C@@H](C(=O)O)C(=O)SCCNC(=O)CCNC(=O)[C@H](O)C(C)(C)COP(=O)(O)OP(=O)(O)OC[C@H]1O[C@@H](n2cnc3c(N)ncnc32)[C@H](O)[C@@H]1OP(=O)(O)O; test: as above; assay type: biochemical, Streptomyces platensis; details: hydrolysis
T8 construct: ketosynthase-acyltransferase (KS-AT) didomain of PnC, recombinant, purified
Text: as §2

[11] = test system: T9, CC(C)(COP(=O)(O)OP(=O)(O)OC[C@H]1O[C@@H](n2cnc3c(N)ncnc32)[C@H](O)[C@@H]1OP(=O)(O)O)[C@@H](O)C(=O)NCCC(=O)NCCSC(=O)CC(=O)O; test: purified protein, by the assay type; parameters: SucC/SucD-coupled CoA-SH release assay, NADH absorbance 340 nm, apparent KM for transacylation to ACP; details: pH 7.4; 30.0 °C
T9 construct: KS-AT didomain of PnD, recombinant, purified
Protocol: as §1

[12] = test system: T9, CC(C)(COP(=O)(O)OP(=O)(O)OC[C@H]1O[C@@H](n2cnc3c(N)ncnc32)[C@H](O)[C@@H]1OP(=O)(O)O)[C@@H](O)C(=O)NCCC(=O)NCCSC(=O)CC(=O)O; test: SucC/SucD - pyruvate kinase/lactate dehydrogenase coupled assay of CoA release; assay type: biochemical, Streptomyces platensis; details: hydrolysis

Substance: PnB_KS-AT1 (Streptomyces platensis)
- Km [1]: 27 ± 2.6 µM
- kcat [1]: 2.33 ± 0.0717 s⁻¹
- kcat/Km [1]: 86700 M⁻¹ s⁻¹
- Km [2]: 4.3 ± 0.8 µM
- kcat [2]: 0.067 ± 0.0025 s⁻¹

Substance: PnB_KS-AT2 (Streptomyces platensis)
- Km [3]: 16 ± 1.7 µM
- kcat [3]: 1.23 ± 0.0333 s⁻¹
- Km [4]: 5.2 ± 0.8 µM
- kcat [4]: 0.05 ± 0.00233 s⁻¹

Substance: PnC_KS-AT (Streptomyces platensis)
- Km [5]: 19 ± 15.5 µM
- kcat [5]: 0.00667 ± 0.00133 s⁻¹
- kcat/Km [5]: 333 M⁻¹ s⁻¹
- Km [6]: 73 ± 33 µM
- kcat [6]: 0.0233 ± 0.005 s⁻¹
- kcat/Km [6]: 333 M⁻¹ s⁻¹
- Km [7]: 53 ± 41 µM
- kcat [7]: 0.01 ± 0.0025 s⁻¹
- kcat/Km [7]: 167 M⁻¹ s⁻¹
- Km [8]: 20 ± 6.7 µM
- kcat [8]: 0.0133 ± 0.00133 s⁻¹
- kcat/Km [8]: 667 M⁻¹ s⁻¹
- Km [9]: 6.2 ± 1.4 µM
- kcat [9]: 0.0117 ± 0.000667 s⁻¹
- kcat/Km [9]: 1830 M⁻¹ s⁻¹
- Km [10]: 6 ± 1.8 µM
- kcat [10]: 0.015 ± 0.001 s⁻¹
- kcat/Km [10]: 2500 M⁻¹ s⁻¹

Substance: PnD_KS-AT (Streptomyces platensis)
- Km [11]: 44 ± 7.2 µM
- kcat [11]: 0.467 ± 0.03 s⁻¹
- Km [12]: 11.5 ± 3.3 µM
- kcat [12]: 0.05 ± 0.0033 s⁻¹
